# Data taken from patent US20110165156A1 (published 2011).
# Assays:
# [1] = target: CSF-1R of cynomolgous monocytes (cynomolgous); assay: cell-based or functional assay
# [2] = target: T1, human CSF-1R fragment D1-D3 (human, UniProt P07333 20-311); assay: SPR Biacore T100, 37 C, antibody captured, D1-D3 single cycle kinetics
# T1 construct: Subcloned into the pCMV-presS-HisAvitag expression vector; not shown: His-Avi tag of the vector pCMV-presS-HisAvitag
# Experimental: Antibodies against CSF-1R were captured via amine coupled capture molecules. Using the single cycle kinetics five increasing concentrations of human CSF-1R fragment D1-D3 (SEQ ID NO: 66) were injected. Human CSF-1R fragment D1-D3 was subcloned into pCMV-presS-HisAvitag expression vector.
# Single Cycle Kinetics was measured at a flow rate of 30 μL/min by five consecutive injections of the analyte with concentrations, c=7.8, 31.25, 125 500 and 2000 nM, without regeneration. Each injection was 30 seconds long and followed by a dissociation phase of 120 Seconds for the first four injections, and finally 1200 seconds for the highest concentration (=last injection).
# Kinetic parameters were calculated by using the usual double referencing (control reference: binding of analyte to capture molecule; Flow Cell: subdomain CSF-1R concentration “0” as Blank) and calculation with model ‘titration kinetics 1:1 binding with draft’.
# T1 sequence (P07333 20-311): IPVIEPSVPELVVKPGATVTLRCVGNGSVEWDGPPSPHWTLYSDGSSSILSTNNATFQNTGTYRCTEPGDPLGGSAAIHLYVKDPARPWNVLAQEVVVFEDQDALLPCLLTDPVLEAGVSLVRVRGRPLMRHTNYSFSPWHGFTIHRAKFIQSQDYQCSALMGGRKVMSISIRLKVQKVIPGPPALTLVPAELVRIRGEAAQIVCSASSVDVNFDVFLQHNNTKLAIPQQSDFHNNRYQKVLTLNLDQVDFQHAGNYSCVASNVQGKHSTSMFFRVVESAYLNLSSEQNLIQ
binder,measurement,setting,value
"Mab 2F11 (antibody, V domains shown, Murine monoclonal antibody from a hybridoma; also called muMab 2F11) VH: QVQLKESGPGLVAPSQSLSITCTVSGFSLTTYDISWIRQSPGKGLEWLGVIWTDGGTNYNSPFMSRLSIRKDNSKSQVFLKMNRLQTDDTAIYYCVRDQRLYFDVWGAGTTVTVSS VL: NIVMTQSPKSMSMSVGERVTLNCKASEDVNTYVSWYQQQPEQSPKLLIYGASNRYTGVPDRFTGGGSTTDFTLTISSVQAEDLADYFCGQSFSYPTFGTGTKLEIK",% inhibition (of survival) = (100% - % survival),[1],96%
same,"% survival (cynomolgous monocytes, 5 µg/ml antibody)",[1],4%
same,binding result,[2],no binding (tested: 2000 nM)
"Mab 2E10 (antibody, V domains shown, Murine monoclonal antibody from a hybridoma) VH: QVQLKESGPGLVAPSKSLSITCTVSGSSLDSFDISWIRQSPGKGLEWLGVIWTGGGTNYNSGFMSRLRITKDNSKSQVLLKMNSLQSDDTAIYYCVRDPRLYFDVWGAGTTVTVSS VL: NIVMTQSPKSMSMSVGERVTLSCKASEDVVTYVSWYQQKPDQSPKLLIYGASNRYTGVPDRFTGSGSATDFTLTISSVQAEDLADYYCGQTFSYPTFGTGTKLEIK",% inhibition (of survival) = (100% - % survival),[1],83%
same,"% survival (cynomolgous monocytes, 5 µg/ml antibody)",[1],17%
same,binding result,[2],no binding (tested: 2000 nM)
"Mab 1G10 (antibody, V domains shown, Murine monoclonal antibody from a hybridoma) VH: RVQLKESGPGLVAPSQSLSITCTVSGFSLTSYDISWIRQSPGKGLEWLGVIWSGGGTNYNSPFMSRLRISKDDSRSQVFLKVNRLQTDDTAIYYCVRDLRLYFDVWGAGTTVTVSS VL: KIVMTQSPKSMSVSVGERVSLSCKASEDVGTYVSWYQQKPEQSPKLLIYGSSNRYTGVPDRFTGSGSATDFTLTISSVQAEDLADYSCGQSFTYPTFGTGTKLEIK",% inhibition (of survival) = (100% - % survival),[1],98%
same,"% survival (cynomolgous monocytes, 5 µg/ml antibody)",[1],2%
same,binding result,[2],no binding (tested: 2000 nM)
"Mab 2H7 (antibody, V domains shown, Murine monoclonal antibody from a hybridoma) VH: QVQLKESGPGLVAPSKSLSITCTVSGSSLDSFDISWIRQPPGKGLEWLGVIWTGGGTNYNSGFMSRLRISKDNSKSQVFLKMSSLQSDDTAIYYCVRDPRLYFDVWGAGTTVTVSS VL: NIVMTQSPKSMSMSVGERVTLSCKASEDVVTYVSWYQQKPEQSPKLLIYGASNRYTGVPDRFTGSGSATDFTLTISSIQAEDLADYYCGQTFSYPTFGTGTKLEIK",% inhibition (of survival) = (100% - % survival),[1],92%
same,"% survival (cynomolgous monocytes, 5 µg/ml antibody)",[1],8%
